Assay [1] concerns the target T1, human NTB-A (human, UniProt Q96DU3 22-332).
T1 sequence: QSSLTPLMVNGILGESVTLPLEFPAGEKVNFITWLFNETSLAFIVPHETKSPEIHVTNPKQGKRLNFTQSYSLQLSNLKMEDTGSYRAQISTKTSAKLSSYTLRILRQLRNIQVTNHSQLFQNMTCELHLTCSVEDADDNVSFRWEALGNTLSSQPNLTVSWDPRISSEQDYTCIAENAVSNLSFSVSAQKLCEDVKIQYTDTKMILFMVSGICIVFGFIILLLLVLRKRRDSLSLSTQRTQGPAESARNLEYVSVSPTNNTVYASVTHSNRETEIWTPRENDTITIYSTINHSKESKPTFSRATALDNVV
Put plainly: cell-based or functional assay.

For assay [2], the target named is T1, human NTB-A. Put plainly: saturation binding of Alexa Fluor 647-labeled antibody on Ramos cells, flow cytometry. As to the method: (§1) Antigen positive Ramos cells were plated at 1×10⁵ cells per well in a 96 well V-bottom plate (Thermo Scientific, Rochester, N.Y.). Three-fold serial dilutions of 2× concentrated antibodies were prepared in FACs buffer (PBS+2% fetal bovine serum) and were added to the cells in duplicate. The antibody solutions were incubated with cells for 1 hour on ice, protected from light. The cells were washed twice with FACs buffer and analyzed on the LSRII flow cytometer (BD BioSciences, San Jose, Calif.). KD values were determined with GraphPad Prism software (La Jolla, Calif.). Anti-human NTB-A antibodies h20F3_HDLD and chimeric 20F3 were tested for binding to 293-F17 cells overexpressing cynomolgus-NTB-A. 293-F17/cynomolgus-NTB-A cells were plated at 5×10⁵ cells/well in FACS buffer (PBS+2% fetal bovine serum+0.02% azide) and incubated with 20 μg/mL antibody for 30 minutes on ice. The cells were washed twice and stained with 30 μg/mL goat anti-human IgG-PE (Jackson ImmunoResearch, West Grove, Pa.) for 30 minutes, on ice and protected from light. Cells were again washed twice with FACs buffer. Stained cells were analyzed on the FACs Calibur flow cytometer (BD BioSciences, San Jose, Calif.).
(In flow cytometry, cells or beads pass a laser one at a time.)

Assay [3] addresses T1, human NTB-A. The assay is described as follows: cell-based or functional assay. The source holds these as a separate data set.
Assay [4] has as its target T1, human NTB-A. Put plainly: saturation binding of Alexa Fluor 647-labeled antibody (h20F3_HDLD-AF647) on Ramos cells, flow cytometry. As to the method:
as §1

Assay [5] deals with T1, human NTB-A. Put plainly: antigen binding competition assay on Ramos cells. On the procedure:
(§2) Antigen positive Ramos cells were plated at 1×10⁵ cells per well in a 96 well V-bottom plate (Thermo Scientific, Rochester, N.Y.). Fifty-fold serial dilutions of antibodies were prepared in FACs buffer (PBS+2% fetal bovine serum) and were added to the cells in duplicate. The antibody solutions were incubated with cells for 1 hour on ice, protected from light. The cells were washed twice with FACs buffer and analyzed on the LSRII flow cytometer (BD BioSciences, San Jose, Calif.). EC50 values were determined with GraphPad Prism software (La Jolla, Calif.).

Assay [6] has as its target T1, human NTB-A. The assay is described as follows: competition flow cytometry on Ramos cells; competitor 5 nM mouse 20F3-Alexa Fluor 647. As to the method:
as §2

Broadly, the Kd is the free concentration of one partner at which half of the binding sites on the other are occupied at equilibrium, for simple one-to-one binding. The EC50 is the midpoint of the concentration-response curve. A high value points to a need for much substance.

B1: c20F3-1910(2) ADC (other)
VH: QIQLVQSGPELKKPGETVKISCKASGYTFTNYGMNWVKQAPGKDLKWMGWINTYSGEPRYADDFKGRFAFSLEKSANTAYLQINNLKNEDMATYFCARDYGRWYFDVWGTGTTVTVSS
VL: QIVLSQSPAILSASPGEKVTMTCRASSSVSHMHWYQQKPGSSPKPWIYATSNLASGVPARFSGSGSGTSYSLTISRVEAEDAATYYCQQWSSTPRTFGGGTKLEIKR
modifications: PBD dimer drug-linker 1910, load 2 by its name; attachment site not stated for the chimeric antibody
For the molecule B1, in assay [1], the “IC50, 96 hour cytotoxicity (Cell-Titer Glo), resting human B cells, donor 1” value was 1.47 µg/mL; the “IC50, 96 hour cytotoxicity (Cell-Titer Glo), resting human B cells, donor 2” value amounted to 1.27 µg/mL; the “IC50, 96 hour cytotoxicity (Cell-Titer Glo), resting human B cells, donor 3” value was 3.42 µg/mL; the “IC50, 96 hour cytotoxicity (Cell-Titer Glo), resting human T cells, donor 4” value is over 10 µg/mL. In addition, in assay [1], the “IC50, 96 hour cytotoxicity (Cell-Titer Glo), resting human T cells, donor 5” value was over 10 µg/mL and the “IC50, 96 hour cytotoxicity (Cell-Titer Glo), resting human T cells, donor 6” value is over 10 µg/mL.

B2: chimeric 20F3 (antibody, V domains shown)
VH: QIQLVQSGPELKKPGETVKISCKASGYTFTNYGMNWVKQAPGKDLKWMGWINTYSGEPRYADDFKGRFAFSLEKSANTAYLQINNLKNEDMATYFCARDYGRWYFDVWGTGTTVTVSS
VL: QIVLSQSPAILSASPGEKVTMTCRASSSVSHMHWYQQKPGSSPKPWIYATSNLASGVPARFSGSGSGTSYSLTISRVEAEDAATYYCQQWSSTPRTFGGGTKLEIKR
notes: It was detected with goat anti-human IgG, so the constant regions are human, but they are not specified
B2 displayed an equilibrium dissociation constant (Kd) in assay [2] of 1.68 nM.

B3: c20F3-vcMMAE(4) ADC (other)
VH: QIQLVQSGPELKKPGETVKISCKASGYTFTNYGMNWVKQAPGKDLKWMGWINTYSGEPRYADDFKGRFAFSLEKSANTAYLQINNLKNEDMATYFCARDYGRWYFDVWGTGTTVTVSS
VL: QIVLSQSPAILSASPGEKVTMTCRASSSVSHMHWYQQKPGSSPKPWIYATSNLASGVPARFSGSGSGTSYSLTISRVEAEDAATYYCQQWSSTPRTFGGGTKLEIKR
modifications: MMAE via a cathepsin-cleavable valine-citrulline linker, load 4 by its name; attachment sites not stated
Regarding B3, in assay [1], the “IC50, 96 hour cytotoxicity (Cell-Titer Glo), resting human B cells, donor 1” value is over 10 µg/mL; the “IC50, 96 hour cytotoxicity (Cell-Titer Glo), resting human B cells, donor 2” value was over 10 µg/mL; the “IC50, 96 hour cytotoxicity (Cell-Titer Glo), resting human B cells, donor 3” value was over 10 µg/mL.

B4: humanized 20F3 HDLD antibody (antibody, V domains shown)
VH: QIQLVQSGSELKKPGASVKVSCKASGYTFTNYGMNWVRQAPGQDLKWMGWINTYSGEPRYADDFKGRFVFSLDKSVNTAYLQISSLKAEDTAVYYCARDYGRWYFDVWGQGTTVTVSS
VL: QIVLSQSPATLSLSPGERATMSCRASSSVSHMHWYQQKPGQAPRPWIYATSNLASGVPARFSGSGSGTDYTLTISSLEPEDFAVYYCQQWSSTPRTFGGGTKVEIKR
notes: also called h20F3_HDLD; h20F3_HDLD-AF647
For the molecule B4, in assay [3], the “Maximum % Phagocytosis (ADCP), Raji cell line” value amounted to 48%; the “Maximum % Phagocytosis (ADCP), WIL2-S cell line” value was determined as 45%; the “Maximum % Phagocytosis (ADCP), normal human T cells” value was 42%. The molecule further yielded a dissociation constant (Kd) in assay [4] of 2.2 nM. The concentration for a half-maximal effect (EC50) in assay [5] is about 12 nM. Besides, the EC50 in assay [6] was 3 nM.

B5: h20F3ec (antibody, human IgG1, kappa, V domains shown)
VH: QIQLVQSGSELKKPGASVKVSCKASGYTFTNYGMNWVRQAPGQDLKWMGWINTYSGEPRYADDFKGRFVFSLDKSVNTAYLQISSLKAEDTAVYYCARDYGRWYFDVWGQGTTVTVSS
VL: QIVLSQSPATLSLSPGERATMSCRASSSVSHMHWYQQKPGQAPRPWIYATSNLASGVPARFSGSGSGTDYTLTISSLEPEDFAVYYCQQWSSTPRTFGGGTKVEIKR
On to B5, for which, in assay [3], the “Maximum % Phagocytosis (ADCP), Raji cell line” value was 44%; the “Maximum % Phagocytosis (ADCP), WIL2-S cell line” value worked out at 45%; the “Maximum % Phagocytosis (ADCP), normal human T cells” value is 33%.

The record behind these values is patent US20180169257A1 (Seagen, published 2018).
